Source: article PMC5443842, “The Effect of Two Amino acid Residue Substitutions via RNA Editing on Dark-operative Protochlorophyllide Oxidoreductase in the Black Pine Chloroplasts” (Scientific Reports, 2017)

Molecular target: T1, Strep-ChlN from Leptolyngbya boryana, expressed in E. coli (Leptolyngbya boryana, UniProt Q04607 1-467)
T1 construct: ChlN, subunit of DPOR (NB protein), Leptolyngbya boryana; Co-expressed with each ChlB variant; To my knowledge pASK-IBA5plus adds an N-terminal Strep-tag II; source: E. coli (chlN-chlB fragments in pASK-IBA5plus), in soluble fraction
T1 sequence (Q04607 whole entry, the tested form may be a part): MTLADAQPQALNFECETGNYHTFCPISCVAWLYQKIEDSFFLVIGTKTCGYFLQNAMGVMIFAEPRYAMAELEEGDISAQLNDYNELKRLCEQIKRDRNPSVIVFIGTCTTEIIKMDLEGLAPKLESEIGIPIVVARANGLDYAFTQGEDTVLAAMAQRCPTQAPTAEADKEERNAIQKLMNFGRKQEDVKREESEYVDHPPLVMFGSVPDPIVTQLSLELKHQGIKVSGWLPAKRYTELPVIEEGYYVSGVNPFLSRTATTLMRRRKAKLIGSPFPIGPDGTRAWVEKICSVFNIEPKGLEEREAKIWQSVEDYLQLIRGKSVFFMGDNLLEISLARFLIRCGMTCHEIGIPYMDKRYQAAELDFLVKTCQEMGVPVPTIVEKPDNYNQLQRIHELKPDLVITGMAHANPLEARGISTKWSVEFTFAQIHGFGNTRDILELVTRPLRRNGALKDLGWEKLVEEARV
Experiment: pull-down; ChlB variants co-expressed with Strep-ChlN in E. coli; soluble fractions on a Strep-Tactin column in an anaerobic chamber; affinity-purified proteins on SDS-PAGE stained with Coomassie Brilliant Blue, yields quantitated
Conditions: partners not purified

stoichiometry N: ~1
B1: wild-type ChlB from Leptolyngbya boryana, expressed in E. coli (natural protein, UniProt P95463 1-508, looked up)
chain: MKLAYWMYAGPAHIGTLRIASSFKNVHAIMHAPLGDDYFNVMRSMLERERDYTPVTTSVVDRHVLARGSQEKVVDNITRKDAEEHPDLIVLTPTCTSSILQEDLQNFVERAQLEAKGDVMLADVNHYRVNELQAADRTLQQIVQFYIAKARKQGNLVTEKTEKPSVNIFGMTTLGFHNNHDATELKKLMSDLGIEVNAIVPAGASVHELKSLPRAWFNLVPYRETGLLAAEFLQQEFNMPYVDITPIGIVETARCIRKIQQVINAQGANVDYEPFIDQQTRFVSQAAWFSRSIDCQNLTGKKAVVFGDNTHAAALTKILAREMGIHVLLAGTYCKYDEAWFREQVSEYCDDVLVSDDNGQIADAIARLEPAAIFGTQMERHVGKRLDIPCGVIAAPIHIQNFPVGYKPFVGYEGSNQIVDLIYNSFTLGMEDHLLEIFGGHDTKEVITKSVSADSDLNWSKDGLAELNRIPGFVRGKVKRNTEKFARDRNITQITAEVLYAAKEAVGA
notes: ChlB, subunit of DPOR (NB protein), Leptolyngbya boryana; also called WT ChlB; WT control; source: E. coli (pHANB2), in soluble fraction
